Experimental data from IntAct's records for PubMed 31515488.

B1: E3 ubiquitin-protein ligase SH3RF2 (Homo sapiens), Q8TEC5 (parent)
chain: MDDLTLLDLLECPVCFEKLDVTAKVLPCQHTFCKPCLQRVFKAHKELRCPECRTPVFSNIEALPANLLLVRLLDGVRSGQSSGRGGSFRRPGTMTLQDGRKSRTNPRRLQASPFRLVPNVRIHMDGVPRAKALCNYRGQNPGDLRFNKGDIILLRRQLDENWYQGEINGISGNFPASSVEVIKQLPQPPPLCRALYNFDLRGKDKSENQDCLTFLKDDIITVISRVDENWAEGKLGDKVGIFPILFVEPNLTARHLLEKNKGRQSSRTKNLSLVSSSSRGNTSTLRRGPGSRRKVPGQFSITTALNTLNRMVHSPSGRHMVEISTPVLISSSNPSVITQPMEKADVPSSCVGQVSTYHPAPVSPGHSTAVVSLPGSQQHLSANMFVALHSYSAHGPDELDLQKGEGVRVLGKCQDGWLRGVSLVTGRVGIFPNNYVIPIFRKTSSFPDSRSPGLYTTWTLSTSSVSSQGSISEGDPRQSRPFKSVFVPTAIVNPVRSTAGPGTLGQGSLRKGRSSMRKNGSLQRPLQSGIPTLVVGSLRRSPTMVLRPQQFQFYQPQGIPSSPSAVVVEMGSKPALTGEPALTCISRGSEAWIHSAASSLIMEDKEIPIKSEPLPKPPASAPPSILVKPENSRNGIEKQVKTVRFQNYSPPPTKHYTSHPTSGKPEQPATLKASQPEAASLGPEMTVLFAHRSGCHSGQQTDLRRKSALGKATTLVSTASGTQTVFPSK
partner: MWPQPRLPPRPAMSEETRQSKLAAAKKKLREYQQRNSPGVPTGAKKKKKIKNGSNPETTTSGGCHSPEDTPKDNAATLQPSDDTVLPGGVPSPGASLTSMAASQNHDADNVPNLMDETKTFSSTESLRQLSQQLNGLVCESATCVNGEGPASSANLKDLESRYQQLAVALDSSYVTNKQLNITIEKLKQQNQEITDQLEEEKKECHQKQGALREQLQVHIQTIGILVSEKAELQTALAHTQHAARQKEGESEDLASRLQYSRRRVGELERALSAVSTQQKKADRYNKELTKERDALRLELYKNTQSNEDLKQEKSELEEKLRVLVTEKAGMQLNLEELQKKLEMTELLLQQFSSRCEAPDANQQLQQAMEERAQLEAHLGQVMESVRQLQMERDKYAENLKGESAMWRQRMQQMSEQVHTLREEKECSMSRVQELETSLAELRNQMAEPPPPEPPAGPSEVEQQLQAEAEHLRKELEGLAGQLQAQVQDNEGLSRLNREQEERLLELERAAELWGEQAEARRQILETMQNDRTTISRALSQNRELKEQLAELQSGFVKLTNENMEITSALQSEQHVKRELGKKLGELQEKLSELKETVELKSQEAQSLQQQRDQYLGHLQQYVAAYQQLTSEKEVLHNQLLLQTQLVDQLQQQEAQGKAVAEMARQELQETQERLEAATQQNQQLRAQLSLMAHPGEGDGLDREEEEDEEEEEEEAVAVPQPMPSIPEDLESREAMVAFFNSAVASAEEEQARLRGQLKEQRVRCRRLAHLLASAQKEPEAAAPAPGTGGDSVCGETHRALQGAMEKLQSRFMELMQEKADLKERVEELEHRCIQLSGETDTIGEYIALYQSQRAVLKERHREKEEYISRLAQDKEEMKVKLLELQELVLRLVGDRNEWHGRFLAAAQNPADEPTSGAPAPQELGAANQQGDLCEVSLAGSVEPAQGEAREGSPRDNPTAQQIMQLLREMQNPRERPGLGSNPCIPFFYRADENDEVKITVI
B2: Microtubule-associated tumor suppressor candidate 2 (Homo sapiens), Q5JR59-3 (parent)
chain: MGHCCCKPYNCLQCLDKTNESALVKEKELSIELANIRDEVAFHTAKCEKLQKEKEELERRFEDEVKRLGWQQQAELQELEERLQLQFEAEMARLQEEHGDQLLSIRCQHQEQVEDLTASHDAALLEMENNHTVAITILQDDHDHKVQELMSTHELEKKELEENFEKLRLSLQDQVDTLTFQSQSLRDRARRFEEALRKNTEEQLEIALAPYQHLEEDMKSLKQVLEMKNQQIHEQEKKILELEKLAEKNIILEEKIQVLQQQNEDLKARIDQNTVVTRQLSEENANLQEYVEKETQEKKRLSRTNEELLWKLQTGDPTSPIKLSPTSPVYRGSSSGPSSPARVSTTPR
partner: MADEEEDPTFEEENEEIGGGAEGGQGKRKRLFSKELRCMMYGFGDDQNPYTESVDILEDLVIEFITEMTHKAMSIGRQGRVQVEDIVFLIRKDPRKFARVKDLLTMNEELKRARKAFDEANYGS
B3: Protein BANP (Homo sapiens), Q8N9N5 (parent)
chain: MMSEHDLADVVQIAVEDLSPDHPVVLENHVVTDEDEPALKRQRLEINCQDPSIKTICLRLDSIEAKLQALEATCKSLEEKLDLVTNKQHSPIQVPMVAGSPLGATQTCNKVRCVVPQTTVILNNDRQNAIVAKMEDPLSNRAPDSLENVISNAVPGRRQNTIVVKVPGQEDSHHEDGESGSEASDSVSSCGQAGSQSIGSNVTLITLNSEEDYPNGTWLGDENNPEMRVRCAIIPSDMLHISTNCRTAEKMALTLLDYLFHREVQAVSNLSGQGKHGKKQLDPLTIYGIRCHLFYKFGITESDWYRIKQSIDSKCRTAWRRKQRGQSLAVKSFSRRTPNSSSYCPSEPMMSTPPPASELPQPQPQPQALHYALANAQQVQIHQIGEDGQVQVGHLHIAQVPQGEQVQITQDSEGNLQIHHVGQDGQLLEATRIPCLLAPSVFKASSGQVLQGAQLIAVASSDPAAAGVDGSPLQGSDIQVQYVQLAPVSDHTAGAQTAEALQPTLQPEMQLEHGAIQIQ
partner: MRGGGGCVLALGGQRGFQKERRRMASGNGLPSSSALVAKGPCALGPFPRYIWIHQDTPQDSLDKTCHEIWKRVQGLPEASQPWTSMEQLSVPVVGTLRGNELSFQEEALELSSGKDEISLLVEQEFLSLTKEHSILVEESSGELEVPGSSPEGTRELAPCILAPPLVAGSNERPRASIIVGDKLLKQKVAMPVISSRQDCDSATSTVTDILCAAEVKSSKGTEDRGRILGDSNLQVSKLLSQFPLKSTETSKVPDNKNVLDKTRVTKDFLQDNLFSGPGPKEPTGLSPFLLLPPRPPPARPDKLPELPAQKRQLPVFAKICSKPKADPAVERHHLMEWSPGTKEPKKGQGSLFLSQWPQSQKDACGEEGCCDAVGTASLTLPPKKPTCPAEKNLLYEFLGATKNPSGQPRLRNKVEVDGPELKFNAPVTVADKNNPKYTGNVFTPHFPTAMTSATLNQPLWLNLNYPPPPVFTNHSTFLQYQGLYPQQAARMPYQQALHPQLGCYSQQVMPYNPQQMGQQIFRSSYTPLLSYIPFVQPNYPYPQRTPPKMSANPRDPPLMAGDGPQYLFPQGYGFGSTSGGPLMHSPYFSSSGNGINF
B4: Transcription initiation factor IIA subunit 1 (Homo sapiens), P52655-1 (parent)
chain: MANSANTNTVPKLYRSVIEDVINDVRDIFLDDGVDEQVLMELKTLWENKLMQSRAVDGFHSEEQQLLLQVQQQHQPQQQQHHHHHHHQQAQPQQTVPQQAQTQQVLIPASQQATAPQVIVPDSKLIQHMNASNMSAAATAATLALPAGVTPVQQILTNSGQLLQVVRAANGAQYIFQPQQSVVLQQQVIPQMQPGGVQAPVIQQVLAPLPGGISPQTGVIIQPQQILFTGNKTQVIPTTVAAPTPAQAQITATGQQQPQAQPAQTQAPLVLQVDGTGDTSSEEDEDEEEDYDDDEEEDKEKDGAEDGQVEEEPLNSEDDVSDEEGQELFDTENVVVCQYDKIHRSKNKWKFHLKDGIMNLNGRDYIFSKAIGDAEW
B5: Bcl-2-interacting killer (Homo sapiens), Q13323 (parent)
chain: MSEVRPLSRDILMETLLYEQLLEPPTMEVLGMTDSEEDLDPMEDFDSLECMEGSDALALRLACIGDEMDVSLRAPRLAQLSEVAMHSLGLAFIYDQTEDIRDVLRSFMDGFTTLKENIMRFWRSPNPGSWVSCEQVLLALLLLLALLLPLLSGGLHLLLK
B6: Zinc finger CCCH-type with G patch domain-containing protein (Homo sapiens), Q8N5A5 (parent)
chain: MDEESLESALQTYRAQLQQVELALGAGLDSSEQADLRQLQGDLKELIELTEASLVSVRKSSLLAALDEERPGRQEDAEYQAFREAITEAVEAPAAARGSGSETVPKAEAGPESAAGGQEEEEGEDEEELSGTKVSAPYYSSWGTLEYHNAMVVGTEEAEDGSAGVRVLYLYPTHKSLKPCPFFLEGKCRFKENCRFSHGQVVSLDELRPFQDPDLSSLQAGSACLAKHQDGLWHAARITDVDNGYYTVKFDSLLLREAVVEGDGILPPLRTEATESDSDSDGTGDSSYARVVGSDAVDSAQSSALCPSLAVVGSDAVDSGTCSSAFAGWEVHTRGIGSRLLTKMGYEFGKGLGRHAEGRVEPIHAVVLPRGKSLDQCVETLQKQTRVGKAGTNKPPRCRGRGARPGGRPAPRNVFDFLNEKLQGQAPGALEAGAAPAGRRSKDMYHASKSAKRALSLRLFQTEEKIERTQRDIRSIQEALARNAGRHSVASAQLQEKLAGAQRQLGQLRAQEAGLQQEQRKADTHKKMTEF
partner: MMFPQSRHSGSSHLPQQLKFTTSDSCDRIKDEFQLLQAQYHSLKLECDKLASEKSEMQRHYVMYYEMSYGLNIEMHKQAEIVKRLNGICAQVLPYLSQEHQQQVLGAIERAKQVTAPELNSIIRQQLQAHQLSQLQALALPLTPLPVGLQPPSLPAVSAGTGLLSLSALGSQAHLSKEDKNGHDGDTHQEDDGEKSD

Variants of: B1
Conditions: with goga2_human GOLGA2, Q08379

| Variant | effect of a mutation on the interaction |
| --- | --- |
| V687I | with no effect |

Variants of: B2
Conditions: with taf13_human TAF13, Q15543

| Variant | effect of a mutation on the interaction |
| --- | --- |
| A89V | with no effect |

Variants of: B3
Conditions: with ca094_human C1orf94, Q6P1W5

| Variant | effect of a mutation on the interaction |
| --- | --- |
| P348S | with no effect |

Variants of: B4
Conditions: with nfya_human NFYA

| Variant | effect of a mutation on the interaction |
| --- | --- |
| L30V | with no effect |

Variants of: B5
Conditions: with BCL2L1, Q07817
Sequence of BCL2L1, Q07817 (Q07817 whole entry): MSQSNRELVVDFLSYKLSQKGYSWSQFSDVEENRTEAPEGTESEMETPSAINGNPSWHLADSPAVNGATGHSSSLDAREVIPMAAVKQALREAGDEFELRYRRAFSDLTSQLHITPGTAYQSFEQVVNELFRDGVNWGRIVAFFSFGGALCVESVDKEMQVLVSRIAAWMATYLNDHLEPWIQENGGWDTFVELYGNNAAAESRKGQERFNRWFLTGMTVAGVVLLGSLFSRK

| Variant | effect of a mutation on the interaction |
| --- | --- |
| D69E | with no effect |

Variants of: B6
Conditions: with tle5_human TLE5, Q08117

| Variant | effect of a mutation on the interaction |
| --- | --- |
| S61R | with no effect |
